Drawing on doi:10.1101/2025.02.24.639830, this text covers K half for one substance.

This data set deals with LeuO (Escherichia coli (ASKA library overexpression strain)). The data set can be described thus: EMSA. In general terms: In EMSA bound probe runs differently from free probe, usually more slowly.

leuLABCD promoter region EMSA probe gave a K half of 25 nM.
